# Assay results published in patent EP2654803B1, “RADIOLABELED HER2-BINDING PEPTIDE CONJUGATES” (General Electric Company, priority 2010, dated 2021).
# Read-outs that look alike come from different tables or passages of the source.
# What was measured:
# [1] = test system: SKOV3 tumors; parameters: species or system female CD-1 nude mice; details: mouse, in vivo
# Description: In vivo studies were carried out with female CD-1 nude mice (Charles River Labs, Hopkinton, MA) with an age range between 6 and 15 weeks. Mice were housed in a ventilated rack with food and water ad libitum and a standard 12 hour day-night lighting cycle. For xenografts, animals were injected with 100 µl of cells in PBS. Cells were implanted subcutaneously in the right hindquarter. Implantation was performed under isoflurane anesthesia. For SKOV3, between 3 x 10^6 to 4 x 10^6 cells were implanted in each mouse. Under these conditions, useable tumors ([…]) were obtained in 3 to 4 weeks in greater than 80% of animals injected. Mice were given tail-vein injections of ∼1 ug of ^18F-labeled polypeptide (∼4 uCi/1 µg). Mice were placed in filter-paper lined cages until euthanasia. Three mice were euthanized at each timepoint and tissues of interest dissected and counted on a Perkin Elmer Wallac Wizard 1480 Gamma Counter. Data were collected for blood, kidney, liver, spleen, bone and injection site (tail). Urine from cages was pooled with the bladder and also counted. The remaining tissues were counted and the sum of all tissues plus urine for each animal was summed to provide the total injected dose. The percent injected dose for each organ was determined based on this total, and organs were weighed for determination of the percent injected dose per gram, (%ID/g). […]
# [2] = test system: SKOV3 tumors; parameters: species or system female CD-1 nude mice; details: mouse, in vivo; remark: listed apart in the source
# Description: Synthesis of the radiolabeled polypeptide was performed using a one-step kit formulation produced in house (Chelakit A+) containing a lyophilized mixture of stannous chloride as a reducing agent for technetium, methylene diphosphonic acid, p-aminobenzoate as a free-radical scavenger and sodium bicarbonate/sodium carbonate (pH 9.2) as buffer. In rapid succession, 20 µL of a 2 µg/µL solution of polypeptide in saline was added to the Chelakit, followed immediately by Na^99mTcO4 (0.8 mCi, 29.6 MBq) in 0.080 mL of saline (0.15M NaCl) obtained from Cardinal Health (Albany, NY). The mixture was agitated once and allowed to sit at ambient temperature for 20 min. Upon completion, the crude radiochemical yield was determined by ITLC (Table 6 below according to ITLC-SG, Biodex, 0.9% NaCl). […]
# Mice were given tail-vein injections of ∼1 ug of ^99mTc-labeled polypeptides (∼10 µCi/1 µg). […] Three mice were euthanized at each timepoint and tissues of interest dissected and counted on a Perkin Elmer Wallac Wizard 1480 Gamma Counter. […] Urine from cages was pooled with the bladder and also counted. The remaining tissues were counted and the sum of all tissues plus urine for each animal was summed to provide the total injected dose. The % injected dose for each organ was determined based on this total, and organs were weighed for determination of the % injected dose per gram, (%ID/g). […]
Substance,"kidneys, ID/organ [1]",uptake in the liver [1],"kidneys, ID/organ [2]",uptake in the liver [2]
Z02891 (SEQ. ID No. 2) 18F-fluorobenzyl oxime: Z02891-ONH2 (Mal-AO on cysteine) reacted with [18F]4-fluorobenzaldehyde,0.95±0.07 ID/organ,ca. 1.8 %ID/organ,,
Z02891 (SEQ. ID No. 2) cPN216: Z02891 polypeptide conjugated with Mal-cPN216 via a terminal cysteine and labeled with 99mTc,,,10.58 ± 2.96 ID/organ,12 %ID/organ
